Data on three substances can be found in patent US20030190634.

Data set [1] concerns the target Tth DNA ligase K294R K294R (Thermus thermophilus) (UniProt P26996). The note with it: initial ligation rate, 65 C.
In data set [2] the target is Tth DNA ligase wild type (Thermus thermophilus) (UniProt P26996). The note with it: initial ligation rate, 65 C.
For data set [3], the target named is T1, T4 DNA ligase (Enterobacteria phage T4?) (UniProt P00970).
T1 sequence: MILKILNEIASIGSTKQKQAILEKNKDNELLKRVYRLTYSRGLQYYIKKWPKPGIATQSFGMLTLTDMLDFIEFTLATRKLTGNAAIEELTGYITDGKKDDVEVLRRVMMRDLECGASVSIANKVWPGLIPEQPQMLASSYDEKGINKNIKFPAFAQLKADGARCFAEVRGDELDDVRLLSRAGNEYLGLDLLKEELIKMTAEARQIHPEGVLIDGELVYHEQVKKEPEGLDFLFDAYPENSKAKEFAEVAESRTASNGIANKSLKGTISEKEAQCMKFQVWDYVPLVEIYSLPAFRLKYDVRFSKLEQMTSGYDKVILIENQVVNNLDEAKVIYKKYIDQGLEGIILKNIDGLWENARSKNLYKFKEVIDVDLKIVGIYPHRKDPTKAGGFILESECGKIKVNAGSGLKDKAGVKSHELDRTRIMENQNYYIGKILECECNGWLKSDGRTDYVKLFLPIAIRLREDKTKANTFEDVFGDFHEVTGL
The settings on record: initial ligation rate, 0.5 nM enzyme, 37 C.

In data set [4] the target is Aquifex sp. DNA ligase (Aquifex sp.) (UniProt O66880). The note with it: initial ligation rate, 65 C.
Sequence of Aquifex sp. DNA ligase (Aquifex sp.) (O66880 whole entry): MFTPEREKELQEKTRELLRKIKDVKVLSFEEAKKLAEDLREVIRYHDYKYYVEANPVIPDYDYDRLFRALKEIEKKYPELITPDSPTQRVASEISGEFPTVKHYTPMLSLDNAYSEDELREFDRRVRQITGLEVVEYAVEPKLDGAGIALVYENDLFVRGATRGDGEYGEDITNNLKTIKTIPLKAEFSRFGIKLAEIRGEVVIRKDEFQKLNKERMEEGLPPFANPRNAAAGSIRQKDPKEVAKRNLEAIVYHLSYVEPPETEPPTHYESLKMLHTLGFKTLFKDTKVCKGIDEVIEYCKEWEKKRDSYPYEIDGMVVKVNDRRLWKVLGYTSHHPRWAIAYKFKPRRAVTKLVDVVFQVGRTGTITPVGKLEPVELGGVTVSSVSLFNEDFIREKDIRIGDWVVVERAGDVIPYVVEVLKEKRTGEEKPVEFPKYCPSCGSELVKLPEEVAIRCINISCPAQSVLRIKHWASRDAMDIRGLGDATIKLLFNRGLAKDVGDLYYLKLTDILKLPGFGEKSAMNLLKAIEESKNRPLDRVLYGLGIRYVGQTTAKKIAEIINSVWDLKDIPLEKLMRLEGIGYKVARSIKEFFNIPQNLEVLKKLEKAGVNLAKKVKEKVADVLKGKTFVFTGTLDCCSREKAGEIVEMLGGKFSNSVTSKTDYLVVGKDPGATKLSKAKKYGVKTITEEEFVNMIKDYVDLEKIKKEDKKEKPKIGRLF
Data set [5] deals with Thermus sp. AK16D DNA ligase (Thermus sp. AK16D) (UniProt Q9ZFY8). The note with it: initial ligation rate, 65 C.
Sequence of Thermus sp. AK16D DNA ligase (Thermus sp. AK16D) (Q9ZFY8 whole entry): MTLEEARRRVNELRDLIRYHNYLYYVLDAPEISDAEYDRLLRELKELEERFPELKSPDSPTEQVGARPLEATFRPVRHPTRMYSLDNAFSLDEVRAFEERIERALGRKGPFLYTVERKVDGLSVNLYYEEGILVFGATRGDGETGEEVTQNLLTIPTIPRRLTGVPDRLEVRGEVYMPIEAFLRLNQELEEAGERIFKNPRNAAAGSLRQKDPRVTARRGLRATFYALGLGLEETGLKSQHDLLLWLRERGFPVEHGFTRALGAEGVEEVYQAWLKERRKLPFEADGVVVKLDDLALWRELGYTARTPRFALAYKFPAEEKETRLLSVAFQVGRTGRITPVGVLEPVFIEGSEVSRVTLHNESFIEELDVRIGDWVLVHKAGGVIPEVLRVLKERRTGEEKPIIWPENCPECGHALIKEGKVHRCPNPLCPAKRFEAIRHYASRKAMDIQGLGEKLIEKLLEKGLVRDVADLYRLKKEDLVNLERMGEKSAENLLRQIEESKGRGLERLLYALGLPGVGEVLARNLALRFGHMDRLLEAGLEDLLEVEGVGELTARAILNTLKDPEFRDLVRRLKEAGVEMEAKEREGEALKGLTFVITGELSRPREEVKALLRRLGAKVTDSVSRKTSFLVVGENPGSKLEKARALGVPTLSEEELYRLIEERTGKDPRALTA
The mark [6] stands for this setting: 12.5 nM enzyme, NAD+, 10 mM MgCl2.

Read-outs that look alike come from different tables or passages of the source.

Sequence of Tth DNA ligase wild type (Thermus thermophilus) (P26996 whole entry): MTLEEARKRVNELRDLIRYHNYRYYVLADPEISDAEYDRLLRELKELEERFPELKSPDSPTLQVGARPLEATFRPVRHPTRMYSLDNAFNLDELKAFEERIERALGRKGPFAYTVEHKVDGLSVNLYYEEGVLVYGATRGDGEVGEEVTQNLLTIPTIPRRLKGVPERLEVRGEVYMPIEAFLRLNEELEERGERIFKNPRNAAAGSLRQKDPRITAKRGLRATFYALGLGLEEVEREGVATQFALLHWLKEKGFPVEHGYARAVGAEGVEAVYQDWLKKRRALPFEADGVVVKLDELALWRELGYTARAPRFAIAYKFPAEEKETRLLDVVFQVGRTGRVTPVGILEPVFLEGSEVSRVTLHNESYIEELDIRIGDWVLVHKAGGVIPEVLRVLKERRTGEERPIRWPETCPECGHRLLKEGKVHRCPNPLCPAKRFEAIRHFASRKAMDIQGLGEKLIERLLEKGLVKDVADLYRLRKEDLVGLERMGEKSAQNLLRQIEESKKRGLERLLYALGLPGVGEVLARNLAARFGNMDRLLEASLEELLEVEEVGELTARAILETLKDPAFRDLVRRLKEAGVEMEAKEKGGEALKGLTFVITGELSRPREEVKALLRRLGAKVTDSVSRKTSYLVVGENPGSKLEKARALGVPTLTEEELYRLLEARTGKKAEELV
Sequence of Tth DNA ligase K294R K294R (Thermus thermophilus) (P26996 whole entry K294R): as the sequence (P26996 whole entry) above, with K294R counted along it

For the substance nicked duplex, C-G match at 3'-end, the activity (fmol/ (time unit not given)) in data set [1] (setting [6]) came to 150; in data set [2] (1.25 nM enzyme as printed, NAD+, 10 mM MgCl2), 55; in data set [3] (10 mM MgCl2, 12.5 nM substrate) it was 140; in data set [4] (setting [6]) it was 99; in data set [5] (setting [6]), 130.
In the case of nicked duplex, T-G mismatch at 3'-end, the activity (fmol/ (time unit not given)) came to 0.029 in data set [1] (fidelity 5300); 0.065 in data set [2] (fidelity 840); 2.8 in data set [3] (fidelity 50); 0.029 in data set [4] (fidelity 3500); 0.025 in data set [5] (fidelity 5200).
As for “nicked duplex, T-G mismatch at penultimate 3'-end”, the activity (fmol/ (time unit not given)) in data set [1] (fidelity 400) came out at 0.38; in data set [2] (fidelity 190), 0.29; in data set [3] (fidelity 19), 7.1; in data set [4] (fidelity 380), 0.26; in data set [5] (fidelity 1100), 0.12.
